Experiments:
Assay in all cases: cell_activity
[1] = tested on: 8196zDR D467A D483R,D467A (FokI) (synthetic construct); settings: TI with 8267RD; NHEJ 0.0
[2] = tested on: 8196zDR D483R (FokI) (synthetic construct); settings: NHEJ with 8267RD; TI 28.4%
[3] = tested on: 8196zKK (ZFN-R-KK) E490K,I538K (FokI) (synthetic construct); settings: NHEJ with 8267EL; TI 29.4%; K562
[4] = tested on: 8196zKK D467A E490K,I538K,D467A (FokI) (synthetic construct); settings: TI with 8267EL; NHEJ 0.0
[5] = tested on: 8267RD R487D (FokI) (synthetic construct); settings: NHEJ with 8196zDR; TI 28.4%
[6] = tested on: 8196zDR D450N D483R,D450N (FokI) (synthetic construct); settings: TI with 8267RD; NHEJ 0.0

Substance CCR5 endogenous locus (K562) has an activity [1] of 0.7%, an activity [2] of 36.7% and an activity [3] of 54.3%. It also gave an activity [4] of 1.1%, an activity [5] of 36.7% and an activity [6] of 1.2%.
